Read-outs that look alike come from different tables or passages of the source.
What was measured:
[1] = type: physicochemical; conditions: for t1/2 @ pH 7.4: buffer; for Rate of exenatide release: 50 μM conjugate
Experimental: Release rates were determined to be:

[2] = rat, in vivo, iv
Experimental: The solution was administered by i.v. injection to cannulated male Sprague Dawley rats at 100 μL/100 g body weight. A single animal was used for a complete time course, repeated in duplicate.
Rat serum samples were thawed on ice, and 200 μL was adjusted to pH ˜5.5 by addition of 5 μL of 2M acetic acid.
Proteins were precipitated from 50 μL of acidified rat serum by addition of 150 μL of cold MeOH containing 40 μg/mL Fmoc-Lys (DNP)OH as an internal standard for volume deviations. The samples were kept on ice for 2 hours and centrifuged at 14,000 rpm for 10 min at 4° C. The supernatant was analyzed on a Shimadzu™ HPLC with a Phenomenex® Jupiter® C18 300A 5 μm column (4.6×150 mm) at 40° C. The mobile phase consisted of H2O/0.1% TFA (Buffer A) and ACN/0.1% TFA (Buffer B) at 1 mL/min. […] Quantitation was performed by comparison of peak areas to standard solutions of mPEG-coumarin after MeOH precipitation in rat serum (Sigma-Aldrich) as above. Any volume deviations were corrected using the peak area of the Fmoc-Lys (DNP)OH internal standard in each sample.
Serum samples were treated with 2 volumes of acetonitrile (ACN) and centrifuged. The supernatant was dried, reconstituted in 1% formic acid and applied to HPLC (below). The sample was eluted by a water-ACN gradient containing 1% formic acid. […] HPLC-MS/MS analyses were carried out on a Sciex™ API-5500 mass spectrometer coupled with a Shimadzu™ HPLC system. The Shimadzu™ HPLC system consisted of two LC-30AD HPLC pumps and a SIL-30AC autosampler with a 100 μL loop installed. The chromatographic separations were achieved on a Jupiter® (Phenomenex®) 5 μm C18, 300 Å, HPLC column, 2.0×150 mm, with mobile phase gradients. The mass spectrometer was operated in positive ESI mode and the resolution setting used was unit for both Q1 and Q3. […] Peak-area integrations were performed using Analyst software (version 1.5.2) from AB Sciex™.

Substance | t1/2 @ pH 7.4 [1] | Rate of exenatide release ([1]; pH 8.5, 100 mM bicine) | Rate of exenatide release ([1]; pH 9.5, 100 mM sodium borate) | Conjugate clearance rate [2] | Conjugate clearance t1/2 [2] | Plasma half-life of the conjugate [2]
4-chlorophenyl-SO2: DBCO-Lys(DEAC)-[GL4-400] 40 kDa PEG conjugated to N-[7-azido-1-(4-chlorophenylsulfonyl)-2-heptyloxycarbonyl]-exenatide | 59 h | .00248 h⁻¹ | – | – | – | –
CH3—SO2: DBCO-Lys(DEAC)-[GL4-400] 40 kDa PEG conjugated to N-[7-azido-1-(methylsulfonyl)-2-heptyloxycarbonyl]-exenatide | 483 h | – | .00301 h⁻¹ | – | – | –
Phenyl-SO2: DBCO-Lys(DEAC)-[GL4-400] 40 kDa PEG conjugated to N-[7-azido-1-(phenylsulfonyl)-2-heptyloxycarbonyl]-exenatide | 133 h | – | .00726 h⁻¹ | 0.015 h⁻¹ | 46 h | 28 h

From patent US20140256626A1 (priority 2011, published 2014)
